According to the DeepSol protein solubility set:

Test: soluble on expression in E. coli; label from the status in PepcDB or PDB records

Sequence: MLKHKIINLIQEKREGSYWDFKAEYHKDKAELLHDIICLSNNLLNQEAYLILGVADNGHILGVAGDSNRKNQEELISFITGKKFAAGRHPKISLMTFEYEEKEIDVIIINPKGYVPYYLERAETDQKSKKNKTVNAGSIYTRVEDKNTPIDSTASPLDTEILWKMHFGLYPTPIKRLQNYLLTPEKWMQNSTGYFHSESPEYIVYKNEDIEEKENYFNLVSPFYAYNQINSNTLYSYYEFKYHSTVLYGCRCISLDSGIYTTPVPELGEINFNMHRDDTIYYRYFIEETMLYNIHLFMYKGDSMEEKFAMDKFLECVLVYKSDVEKELFENYILDNWDKVNQSINENNKRVFGTEHLSQLEKEDITKKVKTVKVLKDELENFRTLEHHHHHH
- soluble on expression in E. coli: not soluble

Sequence: MEGLNVLVTGSTCGLGLHTAKILFKKGANVILTCRDEIRGRHAVESLLSGVSQEQSQKEAERIHLFTLDVTNYNSICNFTDEISRMFKYLHVIINNAGIMGMPFELSVDGIEMHFATNVFGHYVVVERLLPLLLKTDRPDFKSRVIVVSSGLYRNAEAIPQVSKLLGQKTYDYSPKQAYAFSKLANCLYTGALSKMLEPHNVGVYCVRPGFVNGTELGRETHWILRALAAPIIWFIAKTLEQGCETIVYLAETSGNQLKNGSMYYERKEEAYNEMVEVTSIRQVWAILRHLEDTVWKRNTQMTDEQRNHGEMVRELLNESLIV
- soluble on expression in E. coli: not soluble

Sequence: MNLRNGWNIEFQKNIHMYCHRLIATKGDKHYEVPCEDTPAGFVGIWLYGLELDEMTLSDLQAGLVEWAESSGCTYRIYNTRGVYLTNEPHVQADA
- soluble on expression in E. coli: not soluble

Sequence: MSLTALQQMTVLFVDDEEIAREQMKMVLSSFCKNTICVGSADQALAALQEHHPDIVLTDIRMPGLSGIELLNAVKQKDASVAVVIVSAHSESEYLLDAFRYKADGYLLKPFNFHEMLELLSDIATQKEAASSERKQGPDNRDFLLKILDTLGGRRAEIMEYVINHLDADNLFHGTYDEVAEALSASKPTVVATFQIMLEKNVLTRLKYGTYRMNVDATEGHHHHHH
- soluble on expression in E. coli: soluble

Sequence: MGSDKIHHHHHHMKNLIFKDSQFEFQTLRVLGSSASGAADIGEVVETAQRIKEGDFKSWCDEWSKTAKSLEESAEESYSKGHFISAKKAYLRAANYYRTAEFYLHENPNNPIIGELYEKSLRCFSYVMKLNKPAIEAVKIPYENTFLPAHYYKLQNSNGKAPVLIAMTGYDGTKEEFYGLAMTALEHGMNFLTFEGPGQGEAVRKQKLFFRYDYEKVVTPVIDYVISRKEVDQAKIILWGESLGGYLAPRAAAFEHRLAACVANSGVYDFFGGILRELGNNSREEFFSAARINPEEFDKNIYSIAKLNSKVRWGIYHGMYVFGVNSPHEYILKAEDFYLKDIAEKIKCPTLVIDSDNDGILGGQSKPLYDVLRCKKEYMFFTSENGAGYHCQVGAKLIGWERILSWIEDIIK
- soluble on expression in E. coli: not soluble

Sequence: ADPLAATTVADLPVYNGEDVWQRVAQRCRLVDGQGVNERIARQRDWLLNNRGFLTGASKRATPYLHFIVERLDERNMPLELALLPMIESSYNPLANSPAAAAGLWQFIPSTGRQFNLNQSATYDARRDVVASSKAAMDYLTRLHDQFNNDWLLALAAYNAGEGTVARAIDANRRRGMPVDYWHLNLPRETQDYVPRLLALSLVVRNPGAYGVQLTPVANMPYFDVVELNHTVDLTQLAATTGVDEAQLLRLNPAFLRKKTPDGPGRLLIPKTHTQVLTAGIERITGESPTTAVIPASPGKRVIEREPSSQVAERAPTPEPLQAAGREQTAGLMQVLEREPAPESVQPVRREPQPKVVQVARQEPLPGPAQPVQAAEQVTVSDPIQPARQASSQATNERSLLDRRIQKRLYIDDRSSPRKRDEIAYRDEPRELPNGPRVVVYASDPRQ
- soluble on expression in E. coli: not soluble

Sequence: MDKPQEECGILGLWSEGPVDVAGLLHLGLLALQHRGQEAAGMAVTDGKAFLVEKDLGLVNQVFTEERLGKLRLPEARLGIAHTRYSTTGSNLRINAQPLTARTAHGVLAIAHNGNFTNAKLLRDRLLLEGATFQSTSDTEVMLLLLARMGHLPLPEAAAQAMRLLQGGYSILLMNRKTLLALRDPHGVRPLVLGKAPWGYAFASEPPALLLMGAEYVRDVRPGEVVWVEEGRLQSLQALPPEPAPCAFEWIYFARPDSVLDGTEAYEARVRMGMELFREAPAEADLVVPVPDSGIGAAVGYAKASGLPLEFGLYKNPYAGRTFIQPTQELRDLKTRLKLSPTGAVKGKRVVLVDDSIVRGTTSRRIVRMLKEAGALEVHFRVSSPPIRFPCYYGIDTAARKELIAAEKSVEEIQAYIGADSLAFLSEEGVKRAIGRPVCLACFNGRYPAGVPEEGEKLALELL
- soluble on expression in E. coli: soluble

Sequence: MGSDKIHHHHHHLTVPKKLLLSDLLKHNVRCENGIDHGPVITPWMHPPVHRILGFISRPSNLRLEREVWRLDQLKGINQQEVYVKGVCSVSDEQTLDRFPTLMNANVFNKSGQKIGLIADFLFEPKKGNIQYYLVSRSNPLIPGTSRWLLSIDQIIDKQPGSISCDIETFEDLPIQKASLKEEFLSKSRKWKAQFQDLTYNASDKLEGWIDDQISESDNDSYEMLNDDPSYDDWIDNLDIDSSEEFNRMNKSKKNTNSTNERDLDPWI
- soluble on expression in E. coli: not soluble

Sequence: GDEEKRNRAITARRQHLKSVMLQIAATELEKEEGRREAEKQNYLAEH
- soluble on expression in E. coli: soluble

Sequence: MGSSHHHHHHSSGLVPRGSHMKLYIIGAGPGDPDLITVKGLKLLQQADVVLYADSLVSQDLIAKSKPGAEVLKTAGMHLEEMVGTMLDRMREGKMVVRVHTGDPAMYGAIMEQMVLLKREGVDIEIVPGVTSVFAAAAAAEAELTIPDLTQTVILTRAEGRTPVPEFEKLTDLAKHKCTIALFLSSTLTKKVMKEFINAGWSEDTPVVVVYKATWPDEKIVRTTVKDLDDAMRTNGIRKQAMILAGWALDPATPWLSGLGENPAIRAMFVAHLHQALNMAVEEAA
- soluble on expression in E. coli: soluble

Sequence: GWLDLAPSTQVDTETSINVLSDIEFTLNGIYSTMQSSDAYSGRLVYYGDVTGDDMQAVSSTKRTGNYYRFNFTKDNGPSSHWSYLYSIIQNCNLILMNVDKLSIDEDETEYKNDLKGQALAIRGMALFDLTRIFGYPYLKDNGASLGVPIVKELSTIDSKPARNTVAECYTEIISDLKNSTELLSGDFNKGKVNRWAAMTLLSRVYLYKGEYNEALTMAENAIKGAEKEGYALWTNEEYPTAWGNDASASNPGEILFEIVNLTTDSPGKESMGYLNSYNGYDDMCITCSFYQLLKKDPKDVRLKILSFDKKYYAYVNKYQPQQGENITDANIPLIRLSEAYLNAAEAAVQTGDNAKAVKYLNSIVQRANPENSVEGKTLTLENVLDERRKELVAEGHRMYDVIRNGMTVKRIDVKDSDINKTKHNTAYMEYDWNFHKILLPIPKKEMDANPNMKQNPGYVD
- soluble on expression in E. coli: soluble

Sequence: MDDILSAALAESGLDFLCQQSSPTPSTSGSIHDDAGQSFSNNTHTPSVSQFFDETSNDSHSSSAYYTPMATPFVSTEDGGVPTSFFGMDEEDGGCTIMTTAGTSGSNNIDGIEDAGGGMYYPHVKVIPRKHTAPTVNQSEPSTPTVTIVPKKEDPLFETNTADSPTPSGDTSTTASYEGNDGLEDQETTSDRQNPMFVQTARSTDFATKKNQMAEQAHFLRFSVFWQKSGRLDTPSTSATVSPHITSSLTQRSHTSSPASSASEGTVVPPRKKGLPITTGSIVKRTVQTKDGLQTQYLKAFVNENGEKIYKLLSPVAASAVARGTLPPGMGRGGSTIGRGGTMVNKNGERLMVVKNHVGPNGQMLVKRMVSPAGTRIVANGGQGRGQPIYRGT
- soluble on expression in E. coli: not soluble

Sequence: MGSDKIHHHHHHMKNLFLFCRAGFEKECAAEIQQRAGELNVGGFVKANNNDAYVVYQCFEEDAADTLVKQLPLDSLIFARQMFAASDLLVDLPESDRISPIVAALSDVSKAGEVRVETPDTNEAKELSAFCRKFTVPLRQHLKKSGSLLAQENPKRPIIHVCFIGPGRAYVGYSYSNNSSPHFMGIPRLKMAADAPSRSSLKLDEAFGQFVPKEEQEERIRSGMNAVDLGACPGGWTYQLVRRGMFVSAVDNGPMDEKLMETGQVKHYREDGFRFEPQRKNIYWLVCDMVRPSSL
- soluble on expression in E. coli: not soluble

Sequence: MSLKPLADRIRPENFNEVFGQKHIIGEGKILDRILKSSLVPNMIFYGPPGTGKTTVANIIAKKTNKAFYKLNATTASVKDVREITDSTNTLMGRNGVLLYLDEIQNFNKKQQQSLLEFMENGSITLIASTTENPYFYVYNAILSRSTIFEFKPLESDELMKAVNRAVELIKDELKTTEIIITEDAKKYAVGVSSGDVRKTLNSIEIAVYSTKPNEEGNIFIDLETMKECTQKNVLNFDKDGDNHYDILSAFQKSIRGSDADAAVLYLAMLIKGGDLKSICRRLLVIAAEDIGLAYPQAISIVKACTDSALELGFPEARIPLAEAVILLATSPKSNSAITAVDSALRDLDTINVGSIPDYLRDGHYEGAKKLGRMQDYKYPHSYENNYVKQKYLPSNLENRRYYEYGKNKIEEKCREYWERIKEGHHHHHH
- soluble on expression in E. coli: soluble

Sequence: SEEITDGVNNMNLATDSQKKNRIQVSNTKKPLFFYVNLAKRYMQQYNDVELSALGMAIATVVTVTEILKNNGFAVEKKIMTSIVDIKDDARGRPVQKAKIEITLVKSEKFDELMAAANEEKEDAETQVQN
- soluble on expression in E. coli: soluble

Sequence: PYAKGNFKAYEQELIGRFKHGESIHSDSIRFPDSLRYKTLVTGRTVYGGGGIMPDLFIPTDTALFNKLHRELLNKGIFNRAVLKYVDAHRQKLRQRFPDRQSYATFSIPEELTESLKAFAEAEKITWSTELFAQAEELIKCQLHAYIARDILGENDFFYFFNRMDKEYIKALDLLNDPDEYKRLLGK
- soluble on expression in E. coli: not soluble

Sequence: MGSDKIHHHHHHMKNTEIRKNIFPVGFYDDIHPDFSVNFQMNRCYTMTNDDVMLKEMREISPSIHNYEEFIEKFLELYNKALNEGHKLRAAYYLRTAEFYMTADHPQKQNYRKQFISLMQEYFNISDEQPYKVPYENGFLPAYRFTSEAPKGTIVMFGGFDSYVEEMFKMALFLKEAGYDVVFFDGPGQGSALEDYKIPMTHEWEKPVKSILDYFELDDVTLLGISLGGYLTVRAAAFEKRVHRVIADDILSNFYEVVLNTLPSQLKEKVNSLMSDGNEQEVNILFKDLMKKSLMVEWAINQGMHITGSKTPYEFLNKILLYNTSKISEKLEQDVLLMAAQEDHYIPLNQFFDQSKSLINVRSLTTRMFTRKETAQNHCQSGNLGLAFEVIANWIEQIQK
- soluble on expression in E. coli: not soluble

Sequence: MGSDKIHHHHHHMRGGNIETMVAGTIKVVQMLPDLNEGGVEKGTLELGAFLTESGHQSIVISGGGRMVSQLESEGSRHLTWPHIGEKSPRCLNYFFPLRRFLLKEGVDIVHLRSRLPAWVAFLAWKSLPVKRRPVLITTFHGFYSVNFYSAIMTRGERIIAVSKTIADHIREAYDVAAERIVLIPRGLDEEQFNPENVTVERIRNLKERWGLNGNTDPVVMLPGRVTRLKGQDVFLQSLAGIKELPWKAIMVGESDATSEYTRILEKMVGDPDLRERVKFVGHCSDMPAAMTLADIVVSTSTKPESFGRTSVEAQAMRKPVIVSAHGGSLETVLDGKTGWHVKPGDSEALSACLRIALSDESVRKKMGVEGRKWVVSQFTVTKMCEKTVALYQELLLRKSSWSQI
- soluble on expression in E. coli: not soluble

Sequence: MHHHHHHLEVLFQGPSSTVTIEYFNQKKEMTKTLEEITRDFEKENPKIKVKVVNVPNAGEVLKTRVLAGDVPDVVNIYPQSIELQEWAKAGVFEDLSNKDYLKRVKNGYAEKYAVNEKVYNVPFTANAYGIYYNKDKFEELGLKVPETWDEFEQLVKDIVAKGQTPFGIAGADAWTLNGYNQLAFATATGGGKEANQYLRYSQPNAIKLSDPIMKDDIKVMDILRINGSKQKNWEGAGYTDVIGAFARGDVLMTPNGSWAITAINEQKPNFKIGTFMIPGKEKGQSLTVGAGDLAWSISATTKHPKEANAFVEYMTRPEVMQKYYDVDGSPTAIEGVKQAGEDSPLAGMTEYAFTDRHLVWLQQYWTSEADFHTLTMNYVLTGDKQGMVNDLNAFFNPMKM
- soluble on expression in E. coli: soluble

Sequence: MALLDKLLTPVMNQYKQPINKCLKVLNKKNNKKTGVAKQNACMDKVWGQALAIITKQFVNKVCTAVAKKMNAKEWNCCKTYVVKVVNVTPYKRFNIVK
- soluble on expression in E. coli: not soluble
